Experimental data from IntAct's records for PubMed 10814541.

B1: Thioredoxin (Homo sapiens), P10599 (parent)
chain: MVKQIESKTAFQEALDAAGDKLVVVDFSATWCGPCKMIKPFFHSLSEKYSNVIFLEVDVDDCQDVASECEVKCMPTFQFFKKGQKVGEFSGANKEKLEATINELV
partner: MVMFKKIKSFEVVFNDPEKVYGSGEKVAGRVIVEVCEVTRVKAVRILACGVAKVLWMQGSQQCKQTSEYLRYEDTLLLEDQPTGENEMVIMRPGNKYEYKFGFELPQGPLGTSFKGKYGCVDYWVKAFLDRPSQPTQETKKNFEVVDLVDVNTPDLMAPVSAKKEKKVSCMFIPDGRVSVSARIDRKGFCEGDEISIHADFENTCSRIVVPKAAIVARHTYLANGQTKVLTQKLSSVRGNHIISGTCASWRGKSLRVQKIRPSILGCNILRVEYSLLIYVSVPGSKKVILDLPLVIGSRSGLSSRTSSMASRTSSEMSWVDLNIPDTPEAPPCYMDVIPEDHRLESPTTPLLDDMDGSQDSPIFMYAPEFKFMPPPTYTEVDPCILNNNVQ

Variants of: B1
Details: with txnip_human TXNIP

| Variant | effect of a mutation on the interaction |
| --- | --- |
| C32S;C35S | decreasing interaction |
